In US9784749:

How the values were obtained:
[1] = target: r244 rabbit anti-human TnTuORF antiserum; experiment: competitive radioimmunoassay, TnTuORF standard against 125I-TnTuORF(Tyr) tracer for r244
[2] = target: r244 rabbit anti-human TnTuORF antiserum; experiment: competitive radioimmunoassay with r244 and 125I-TnTuORF(Tyr) tracer

ED50 [1]: 458 ng/mL
Cross reactivity with TnTuORF antiserum (%) [2]: 100%
B1: Synthetic human Troponin T upstream open reading frame (TnTuORF) peptide (peptide)
peptide: MAPEGWVIVVIS
